In this test the target is LC3B (for ITC and NMR) (human), Q9GZQ8. The test can be described thus: ITC; peptide 0.4 mM titrated into 0.020 mM LC3/GABARAP protein in 26 steps, 25°C; 50 mM Na2HPO4, 100 mM NaCl, pH 7.0; one-site model. A general note: Isothermal titration calorimetry measures the heat released or taken up as one component is titrated into another.

As usually defined, the Kd is a measure of binding affinity in units of concentration. High values mean a looser complex, low ones a tighter complex.

As to PQQEDEWGNVQYPD (modifications not checked) [PLEKHM1‐LIR V636G peptide (ITC), Q9Y4G2 629-642], the Ka turned out to be 10000 M⁻¹, the Kd was more than 100 µM and the dH is -1.7 kcal/mol.
The like results for PQQEDEAVNVQYPD (modifications not checked) [PLEKHM1‐LIR W635A peptide (ITC), Q9Y4G2 629-642] were, in that order, 10000 M⁻¹, more than 100 µM and -0.8 kcal/mol.

These data come from paper PMC5538626, “Structural and functional analysis of the GABARAP interaction motif (GIM)” (EMBO Reports, 2017).
